Reference: the RNAGym collection of RNA variant scans (doi:10.1073/pnas.2313332121)
Fewer inactive variants are shown than the library holds.

B1: TPR 5TU (parent)
chain: GGAUCUUCUCGAUCUAACAAAAAAGACAAAUCUGCCACAAAGCUUGAGAGCAUCUUCGGAUGCAGAGGCGGCAGCCUUCGGUGGCGCGAUAGCGCCAACGUUCUCAACUAUGACACGCAAAACGCGUGCUCCGUUGAAUGGAGUUUAUCAUG

Variants of: B1
Assay: polymerase ribozyme fitness, log enrichment relative to wild type (log ratio); higher = more active; in vitro selection for triplet polymerase activity
In short: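 Streptavidin-bead capture of gel-excised extended constructs, followed by RT-PCR, closed a single triplicate in vitro selection round. That round began by annealing PCR-built, transcribed mutant libraries of each subunit of a heterodimeric triplet polymerase ribozyme with a biotinylated primer, the partner subunit and triplets, then incubating them frozen at −7 °C. After Illumina sequencing of inputs and outputs, genotypes needed ≥10 input reads and ≥1 read per output. Fitness is the base-2 logarithm of genotype enrichment over wild-type enrichment, using inverse-variance-weighted replicate averages.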

| Variant | polymerase ribozyme fitness (log ratio) |
| --- | --- |
| GGACCUUCUCGGUCUAACAAAAAAGACAAAGCUGCCACAAAGCUUGAGAGCAUCUUCGGAUGCAGAGGCGGCAGCCUUCGGUGGCGCGAUAGCCCCAACGUUCUCAACUAUGACACGCAAGACGCGUGCUCCGUUGAAUGGAGUUUAUCAUG [U4C A12G U31G G94C A121G] | -0.0351 |
| GGACCUUCUCGAUCUGACAAGAAAGACAAAUCUGCCACAACGCUUGAGUGCAUCUACGGAUGCAGAGGCGGCAGCCUUCGGUGGCACGAUAGCGCCAACGUUCUCAACUAUGACACGCAAAACGCGUGCUCCGUAGAAUGGAGUUUAUCGUG [U4C A16G A21G A41C A49U U56A G86A U135A A150G] | ≤ -4.2 |
| GGACGUUCUCGAUCUAACAAAAAAGACAAAUAUGCCACACAGCUUGAGAGCAUCUUCGGAUGCAGAGGCGGCAGCCUUCGGCGGCGCGAUAGCGCCAGCGUUUUCAACUAUGCCACGCAAAACGCGUGCUCCGUUGAAUGGAGUUUAUCCUG [U4C C5G C32A A40C U82C A98G C103U A113C A150C] | ≤ -4.2 |
| GGACCUUCUCGAUCUAACAAAAAAGACAAAUCUGCCACAAAGCUUGAGAGCAUCUUCGGAUGCAGAGGCGGCAGCCUUCGGUGGCGCGAUAGCGCCAACGUUCUCAACUAUGACACGCAAAACGCGUGCUCCGUUGAAUGGAGUUUAUCAUG [U4C] | 0.371 |
| GGACCUUCUCGAUCUAACAAACAAGACAAAUCUGCCACAAAGCUUGAUAGCAUCUUCGGAUGCAGAGGCGGCAGCCUUCGGUGGCGCGAUAGGGCCAACGUUCUCAACUAUGACACGCAAACCGCGUGCUCCGUUGAAUGGAGUUUAUCAUG [U4C A22C G48U C93G A122C] | -3.98 |
| GGACCUUCUCGAUCUAACAAAAAAGACAAAUCUGCCACAAAGCUUGAGCGCCUCUUCGGAUGCAGAGGCGGCAGCCUUCGGUGGCGCGAUAGCGCCAAAGUUCUCAACUAUGACACGCAAAACGCGUGCUCUGUUUAAUUGAGUUUAUCAUG [U4C A49C A52C C99A C132U G136U G140U] | ≤ -4.2 |
| GGACCUUCUCGAUCUAACAAAAGAGACAAAUCUGCCACAAAGCUUGAGAGCAUCUUCGGAUGCAGAGGCGGCAGCCUUCGGUGGUGCGAUAGCGCCAUCGUUCUCAACUAUGACACACUAAACGCGUGCUCCGUUGAAUGUAGUUUAUCAUG [U4C A23G C85U A98U G117A A119U G141U] | ≤ -4.2 |
| GGACAUUCUCGAUCUAACAAAAAAGACAAAUCUGCCACAAAGCUUGAGAGCAUCUUCGGAUGCAGAGGCGGCAGCCUUCGGUGGCGAGAUGGCGCCAACGUUCUCAACUAUGACACGCAAAACGCGUGCUCCGUUGAAUGGAGUAUAUCAUG [U4C C5A C87A A91G U145A] | ≤ -4.2 |
| GGAACUUCUCGAUCUAACAAAAAAGACAAAUCUGCCACAAAGCUAGAGAGCAUCUUUGGAUGCAGAGGCGGCAGCCUUCGGUGGCGCGAUCGCGCCAACGUUCUCAACUAUGACACGCAAAACGCGUGCUCCGUUGAAUGGAGUUUAUCAUG [U4A U45A C57U A91C] | ≤ -4.2 |
| GGACCUUCUCGUUCUAACAAAAAAGACAAAUCUGCCACAAAGCUUGAGAGCAUCUUGGGAUGCAGAGGCGGCAGCCUUCGGUGGUGCGAUAGCGCCAGCGUUCUCAACUAUGACACGCAAAACGCGUUCUCCGUUGAAUGGAGUUUAUCAUG [U4C A12U C57G C85U A98G G128U] | ≤ -4.2 |
| GGACCUUAUCGAUCUAACAAAAAAGACAAAUCUGCCACGAAGCUUGAGAGCAUCAUCGGAUGCAGAGGCGGCAGCCUUCGGUGGCGCUAUAGUGCCAACGUGCUCAACUAUGACACGCAAAACGCGUGCUCCGUUGAAUGGAGUUUAUCAUG [U4C C8A A39G U55A G88U C93U U102G] | ≤ -4.2 |
| GGACCUUCUCGAUCUAACAAAAAAGACGAAUCUGCCAUAAAGCUUGAGAGCAUCUUCGGAUGCAGAGGUGGCAGCCUUCGGUGGCGGGAUAGCGCCAACGUUCUCAACUAUGACACGCAAAACGCGUGCUCCAUUGAAUGGAGUUUAUCAUG [U4C A28G C38U C69U C87G G133A] | ≤ -4.2 |
| GGACCUUCUCGAUCUAACAAAUAAGACAAAUGUGCCAGAAAGCUUGAGAGCAUCUUCGGAUGCACAGGCGGCAGCCUUCGAUGGCGCGAUAGCGCCAACGUUCUCAACUAUGACACGUAAAACGCGUGCUCCGUUGAAUGGAGUUUAUUAUG [U4C A22U C32G C38G G65C G81A C118U C149U] | ≤ -4.2 |
| GGACCUUCUCGGUCUAACAAAAAAGACAAAUCUGCCACAAAGCUUGAGAGCAUCUUCGGAUGCAGAGGCGGCGGCCUUCGGUGGCGCGAUAGUGCCAACGUUCUCAACUAUGACACGCAAAACGCGUGCUCCGUUGAAUGGAGUUUAUCAUA [U4C A12G A73G C93U G152A] | -3.07 |
| GGACCUUCUCGAUCUAACAAAUAAGUCAAAUCUGCCACACAGCUUGAGAGCUUCUUCGGAUGCAGAAGCGGCAGCCUUCGGUGGCGCGAAAGCGCCAAAGUUCUCAACUAUGACACGCAAAACGCGUGCUCCGUUGAAUGGAGUUUAUCUUG [U4C A22U A26U A40C A52U G67A U90A C99A A150U] | ≤ -4.2 |
| GGACCUUCUCGAUCUAACAAAAAAGUCAAAUCUGCCACAAAGCUUGAGAGCAUCUUCGGAUGCAGAGGUGGCAGCCUUCGGUGGCGCGAUAGCGCCAACGUUCUCAACUAUGACACGCAAAACGCGUGCUCCGUUGAAUGGAGUUUAUCAUG [U4C A26U C69U] | -2.9 |
| GGAACUUCUCGAUCUAACAAAAAAGACAAAUCAGCCACAAAGCUUGACAGCAUCUUUGGAUGCAGAGGCGGCAGCCUUCGGUGGUGCGAUAGCGCCAACGUUCUCAACUAUGACGCGCAAAACGCGUGGUCCGUUGAAUGUAGUUUAUCAUG [U4A U33A G48C C57U C85U A115G C129G G141U] | ≤ -4.2 |
| GGACCUUCUCGAUCUAACAAAAAAGACAAAUCUGCCACAAAGCUUGAGGGAAUCUUCGGAUGCAGAGGCGGCAGCCUUCGGUGGCGAGAUAGCGCCAACGUUCUCAACUAUGACACGCAAAACGCGUGCUCUGUUGAAUGGAGUUUAUCCUG [U4C A49G C51A C87A C132U A150C] | ≤ -4.2 |
| GGACCUUCUCGCUCUAACAAAAAUGAGGAAUCUGCCACAAAGCAUGAGAGCAUCUUCGGAUGCAGAGGCGGCAGCCUUCGGUGGCGCAAUAGCGCCAACGUUCUCAACUAUGACAUGCAAAACGCGUGCUCCGUUGAAUGGAAUUUAUCAUG [U4C A12C A24U C27G A28G U44A G88A C116U G143A] | ≤ -4.2 |
